Test results reported in the supplement of paper PMC10201428.
± gives the standard deviation of the averaged measurements.

What was measured:
[1] = tested on: VchCAST RNA-guided transposition machinery (E. coli BL21(DE3) host, lacZ target); assay: relative integration efficiency (T-LR orientation) vs wild-type transposon end (log2 (normalized fold change)); transposon end mutated: right end (5 bp flank + 75 bp right end); higher = more efficient transposition
In short: (§1)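 In E. coli BL21(DE3), a T7-driven effector plasmid was paired with a pUC57 mini-transposon donor containing 1549 left-end or 1849 right-end barcoded transposon variants. Cells grew on plates with 0.1 mM IPTG at 37°C for 18 h. Relative integration efficiency was derived from Illumina reads of genomic integration junctions against input plasmids, as a log-transformed output/input barcode fold change normalised to reference barcodes.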

[2] = tested on: VchCAST RNA-guided transposition machinery (E. coli BL21(DE3) host, lacZ target); assay: relative integration efficiency (T-RL orientation) vs wild-type transposon end (log2 (normalized fold change)); transposon end mutated: right end (5 bp flank + 75 bp right end); higher = more efficient transposition
In short: as §1

Row | Sequence | relative integration efficiency (log2) [1] | relative integration efficiency (log2) [2]
1 | ACATTTGTTGATACAACCATAAAGTGATATTTACACCCATAAATTGATATTGCTCAGTGGGTATTTAACTATAACGCTCTGATCATAGTCAGACCAACATTGCTACGACCCGTATTCGCACCGACAC | 2.56 ± 0.28 | -0.797 ± 0.16
2 | ACATTTGTTGATACAACCATAAAGTGATATTTACACCCATAAATTGATATTGCTCACAACCATAAAGTGATATTTACTCTGATCATAGTCAGACCAACATTGCTACGACCCGTATTCGCACCGACAC | 0.171 ± 0.15 | -0.237 ± 0.17
3 | ACATTTGTTGATACAACCATAAAATGGTAATTCCACCCCTAAATTGATAATTATCACACCCAATTTAACTATAACGCTCTGATCATAGTCAGACCAACATTGCTACGACCCGTATTCGCACCGACAC | -0.518 ± 0.25 | -3.6 ± 0.27
4 | ACATTTGTTGATACAACCATAAAATGATAATTACACCCATAAATTTCTAATTATCACACCCATAAATTGATATTGCCTCTGATCATAGTCAGACCAACATTGCTACGACCCGTATTCGCACCGACAC | -0.772 ± 0.23 | -0.945 ± 0.17
5 | ACATTTGGGGATACAACCATAAAATGATAATTACACCCATAAATTGATAATTATCACACCCATAAATTGATATTGCCTCTGATCATAGTCAGACCAACATTGCTACGACCCGTATTCGCACCGACAC | -5.49 ± 0.94 | -6.43 ± 0.081
6 | ACATTTGTTGATACACCCATAAATTGATAATTACACCCATAAATTGATAATTATCACACCCATAAATTGATATTGCCTCTGATCATAGTCAGACCAACATTGCTACGACCCGTATTCGCACCGACAC | -0.0387 ± 0.31 | -0.116 ± 0.036
7 | ACATTTGTTGATACAACCATAAAGTGATATTTACACCCATAAATTGATATTGCTCACAACCATAAAATGATAATTACTCTGATCATAGTCAGACCAACATTGCTACGACCCGTATTCGCACCGACAC | 0.169 ± 0.17 | -0.254 ± 0.19
8 | ACATTTGTTGATAAAACCATAAAATGATAATTAAACCCATAAATTGATAATTATCAAACCCATAAATTGATATTGCCTCTGATCATAGTCAGACCAACATTGCTACGACCCGTATTCGCACCGACAC | -0.129 ± 0.36 | -0.472 ± 0.18
9 | ACATTTGTTGATATGTTCAACCATAAAATGATAATTACACCCATAAATTGATAATTATCACACCCATAAATTGATATTGCCTCTGATCATAGTCAGACCAACATTGCTACGACCCGTATTCGCACCG | -7.23 ± 1.7 | -6.34 ± 0.1
10 | ACATTTGTTGATACAAAAATAAAATGATAATTACACCCATAAATTGATAATTATCACACCCATAAATTGATATTGCCTCTGATCATAGTCAGACCAACATTGCTACGACCCGTATTCGCACCGACAC | -0.268 ± 0.48 | -0.328 ± 0.18
11 | ACATTTGTTGATACAACCAATAAATGATAATTACACCCATAAATTGATAATTATCACACCCATAAATTGATATTGCCTCTGATCATAGTCAGACCAACATTGCTACGACCCGTATTCGCACCGACAC | -0.407 ± 0.67 | -0.395 ± 0.089
12 | ACATTTGTTGATACACCCATAAATTGATAATTACACCCATAAATTGATAATTATCACAACCATAAAATGATAATTACTCTGATCATAGTCAGACCAACATTGCTACGACCCGTATTCGCACCGACAC | -0.749 ± 0.39 | -0.366 ± 0.2
13 | ACATTTGTTGATACACCCATAAATTGATAATTACAACCATAAAATGATAATTATCAGTGGGTATTTAACTATAACGCTCTGATCATAGTCAGACCAACATTGCTACGACCCGTATTCGCACCGACAC | 2.58 ± 0.045 | -0.217 ± 0.012
14 | ACATTTGTCGATACAACCCTAAAATGATAATTACACCCATAAATTCATCATTATCACACCCAATTTAACTATAACGCTCTGATCATAGTCAGACCAACATTGCTACGACCCGTATTCGCACCGACAC | -1.06 ± 0.37 | -4.888 ± 0.035
15 | ACATTTGTTGATACAACCATCAAATGATAATTACACCCCTACATTGATAATTATCACACCCAATTTAACTATAACGCTCTGATCATAGTCAGACCAACATTGCTACGACCCGTATTCGCACCGACAC | -1.57 ± 0.21 | -4.12 ± 0.053
16 | ACATTTGTTGATACAACCATAAAATGATAATCACCCATAAATTGATAATTATCACACCCATAAATTGATATTGCCTCTGATCATAGTCAGACCAACATTGCTACGACCCGTATTCGCACCGACACTG | -1.91 ± 0.79 | -4.33 ± 0.1
17 | ACATTTGTTGATACAACCATAAAATGATAATTACACCCATAAATTGATAATTATCACACCCATAAATTGATATTGCCTCTGATAACTTCGTATAATGTATCGTATACGAACGGTATCGCACCGACAC | -0.264 ± 0.53 | -0.379 ± 0.29
18 | ACATTTGTTGATACAACCATAAAATGATAATTACAACCATATATTGATATCTCTCAGTGGGTATTTAACTATAACGCTCTGATCATAGTCAGACCAACATTGCTACGACCCGTATTCGCACCGACAC | 3.01 ± 0.18 | -0.933 ± 0.28

Row | Sequence | relative integration efficiency (log2) [1] | relative integration efficiency (log2) [2]
19 | ACATTTGTTGATACAACCATAAAATGATAATTACTCTGATCATAGTCAGACCAACATTGCTACGACCCGTATTCGCACCGACACAACGCACCCATAAATTGATAATTATCAGTGGGTATTTAACTAT | 1.8 ± 0.1 | -1.4 ± 0.054
20 | ACATTTGTCGATCCAACCATAAAATGATAATTACACCCATAAATTCATCATTATCACACCCAATTTAACTATAACGCTCTGATCATAGTCAGACCAACATTGCTACGACCCGTATTCGCACCGACAC | 1.38 ± 0.015 | -2.47 ± 0.39
21 | ACATTTGTTGATACACCCATAAATTGATATTGCCAACCATAAGTTGATATTTTTCACACCCATAAATTGATAATTACTCTGATCATAGTCAGACCAACATTGCTACGACCCGTATTCGCACCGACAC | 0.0375 ± 0.27 | -0.7 ± 0.21
22 | ACATTTGTTGATACAACCAGCAAATGATAATTACACCCATAAATTGATAATTATCACACCCATAAATTGATATTGCCTCTGATCATAGTCAGACCAACATTGCTACGACCCGTATTCGCACCGACAC | -3.07 ± 0.51 | -2.72 ± 0.21
23 | ACATTTGTTGATACAACCATAAAATGATAATTACAAAACGCCCGGTCGCCGGCGACACAAACGCCCGGTCGCGGTAAGAGGATCATAGTCAGACCAACATTGCTACGACCCGTATTCGCACCGACAC | 1.07 ± 0.12 | -2.05 ± 0.22
24 | ACATTTGTTGATAAAACCATACGTTGATTTTACGAAACCATACGCTGAAATAATCACACCCATAAATTGATATTGCCTCTGATCATAGTCAGACCAACATTGCTACGACCCGTATTCGCACCGACAC | -3.87 ± 1.2 | -5.63 ± 0.18
25 | ACATTTGTTGATACAACCATAAAATGATAATTACAGGGTTAAATTGATAATTATCACACCCATAAATTGATATTGCCTCTGATCATAGTCAGACCAACATTGCTACGACCCGTATTCGCACCGACAC | -2.54 ± 0.42 | -1.5 ± 0.12
26 | ACATTTGTTGATACAACCATAAAATGATAATTACACCCATAAATTGATAATTATACCACCCATAAATTGATATTGCCTCTGATCATAGTCAGACCAACATTGCTACGACCCGTATTCGCACCGACAC | 0.802 ± 0.067 | -0.694 ± 0.23
27 | ACATTTGTTGATACAACCATAAAATGATAATTACACCCATAAATTGATAATATTCACACCCATAAATTGATATTGCCTCTGATCATAGTCAGACCAACATTGCTACGACCCGTATTCGCACCGACAC | -0.107 ± 0.095 | -0.274 ± 0.23
28 | ACATTTGTTGATACAACCATAAAATGATAATTACACCCATAAATTGATAATTATCACAAACATAAATTGATATTGCCTCTGATCATAGTCAGACCAACATTGCTACGACCCGTATTCGCACCGACAC | 0.898 ± 0.13 | -0.114 ± 0.033
29 | ACATTTGTTGATACAACCCTAAAATGATAATTACACCCATAAATTGATAATTATCACCCCCAATTTAACTATAACGCTCTGATCATAGTCAGACCAACATTGCTACGACCCGTATTCGCACCGACAC | 1.5 ± 0.089 | -1.61 ± 0.24
30 | ACATTTGTTGATACAACCATATATTGATATCTCCACCCATAAATTGATATTGCTCACAACCATAAGTTGATATTTTCTCTGATCATAGTCAGACCAACATTGCTACGACCCGTATTCGCACCGACAC | 0.281 ± 0.01 | -0.57247 ± 9.5e-05
31 | ACATTTGTTGATACAACCATAAAATGATCCGGACACCCATAAATTGATAATTATCACACCCATAAATTGATATTGCCTCTGATCATAGTCAGACCAACATTGCTACGACCCGTATTCGCACCGACAC | -0.898 ± 0.013 | -1.23 ± 0.15
32 | ACATTTGTTGATACAACCATTAAATGATAATTCCACCCAGAAATTGATAATTATCACACCCAATTTAACTATAACGCTCTGATCATAGTCAGACCAACATTGCTACGACCCGTATTCGCACCGACAC | -0.278 ± 0.36 | -3.25 ± 0.24
33 | ACATTTGTTGATACAACCATAAAATGATAATTATAATTATCATTTTATGGTTGTCATAATTATCATTTTATGGTTGCTCTGATCATAGTCAGACCAACATTGCTACGACCCGTATTCGCACCGACAC | 0.158 ± 0.76 | -2.61 ± 0.67
34 | ACATTTGTTGATACACCCATAAATTGATATTGCCAACCATAAAGTGATATTTATCACACCCATAAATTGATATTGCCTCTGATCATAGTCAGACCAACATTGCTACGACCCGTATTCGCACCGACAC | -0.415 ± 0.17 | -0.74 ± 0.11
35 | ACATTTGTTGATACAACCATAAAATGATAATTACCCCCATAAATTGATAATTGTGACACCGAATTTAACTATAACGCTCTGATCATAGTCAGACCAACATTGCTACGACCCGTATTCGCACCGACAC | 1.94 ± 0.097 | -1.79 ± 0.38
